Data: patent US20250244325A1

Experiments:
[1] = substrate: S clamp antigen from CSL451 GMP batch TC20-02-08 (sublot VS20200615A) (SARS-CoV-2) (UniProt P0DTC2); assay: kinetics on CM5 chip: anti-mouse Ab, 30B8 captured, CSL451 Sclamp antigen in solution, 1:1 binding; density 20 RU, table row 3
[2] = substrate: S clamp antigen from CSL451 GMP batch TC20-02-08 (sublot VS20200615A) (SARS-CoV-2) (UniProt P0DTC2); assay: kinetics on CM5 chip: anti-mouse Ab, 30B8 captured, CSL451 Sclamp antigen in solution, 1:1 binding; density 40 RU, table row 2
[3] = substrate: S clamp antigen from CSL451 GMP batch TC20-02-08 (sublot VS20200615A) (SARS-CoV-2) (UniProt P0DTC2); assay: kinetics on CM5 chip: anti-mouse Ab, 30B8 captured, CSL451 Sclamp antigen in solution, 1:1 binding; density 7 RU, table row 7
[4] = substrate: S clamp antigen from CSL451 GMP batch TC20-02-08 (sublot VS20200615A) (SARS-CoV-2) (UniProt P0DTC2); assay: kinetics on CM5 chip: anti-mouse Ab, 30B8 captured, CSL451 Sclamp antigen in solution, 1:1 binding; density 13 RU, table row 5
[5] = substrate: S clamp antigen from CSL451 GMP batch TC20-02-08 (sublot VS20200615A) (SARS-CoV-2) (UniProt P0DTC2); assay: kinetics on CM5 chip: anti-mouse Ab, 30B8 captured, CSL451 Sclamp antigen in solution, 1:1 binding; density 7 RU, table row 8
[6] = substrate: S clamp antigen from CSL451 GMP batch TC20-02-08 (sublot VS20200615A) (SARS-CoV-2) (UniProt P0DTC2); assay: kinetics on CM5 chip: anti-mouse Ab, 30B8 captured, CSL451 Sclamp antigen in solution, 1:1 binding; MEAN ± SEM of the eight runs
[7] = substrate: S clamp antigen from CSL451 GMP batch TC20-02-08 (sublot VS20200615A) (SARS-CoV-2) (UniProt P0DTC2); assay: binding kinetics from sensorgrams (FIG. 6); instrument and format not given
[8] = substrate: S clamp antigen from CSL451 GMP batch TC20-02-08 (sublot VS20200615A) (SARS-CoV-2) (UniProt P0DTC2); assay: kinetics on CM5 chip: anti-mouse Ab, 30B8 captured, CSL451 Sclamp antigen in solution, 1:1 binding; density 40 RU, table row 1
[9] = substrate: S clamp antigen from CSL451 GMP batch TC20-02-08 (sublot VS20200615A) (SARS-CoV-2) (UniProt P0DTC2); assay: kinetics on CM5 chip: anti-mouse Ab, 30B8 captured, CSL451 Sclamp antigen in solution, 1:1 binding; density 13 RU
[10] = substrate: S clamp antigen from CSL451 GMP batch TC20-02-08 (sublot VS20200615A) (SARS-CoV-2) (UniProt P0DTC2); assay: homologous 30B8 capture/detection EIA; CSL451 DP held 1 h at room temperature (control), pre-treated with 0.125% Zwittergent 3 h at 37 C, antigen titrated
[11] = substrate: S clamp antigen from CSL451 GMP batch TC20-02-08 (sublot VS20200615A) (SARS-CoV-2) (UniProt P0DTC2); assay: kinetics on CM5 chip: anti-mouse Ab, 30B8 captured, CSL451 Sclamp antigen in solution, 1:1 binding; density 20 RU, table row 4

B1: antibody 30B8 (antibody, V domains shown)
VH: EVQLQQSGAELVKPGASVKLSCTASGFNIKDTYIHWVKQRPEQGLEWIGRIDPANGNTKYDPKFQGKATITADTSSNTAYLQLSSLTSEDTAVCYCAGSLYDYDGAPFAYWGQGTLVTVSA
VL: SIVMTQTPKFLLVSAGDRVTITCKASQSVTNDVTWYQQKPGQSPKLLIYYASNRYTGVPDRFTGSGYGTDFTFTISTVQAEDLAVYFCQQDYSSPWTFGGGTKLEIK
For B1, the Kd [1] was 0.0155 nM, the koff [1] was 3.66e-05 s⁻¹ and the kon [1] was 2.37e+06 M⁻¹ s⁻¹. It also gave a Kd [2] of 0.0138 nM, a koff [2] of 3.25e-05 s⁻¹ and a kon [2] of 2.35e+06 M⁻¹ s⁻¹. The Kd [3] was 0.013 nM, the koff [3] was 3.11e-05 s⁻¹ and the kon [3] was 2.39e+06 M⁻¹ s⁻¹. For the same binder, the Kd [4] was 0.0171 nM, the koff [4] was 3.96e-05 s⁻¹ and the kon [4] was 2.31e+06 M⁻¹ s⁻¹. It also gave a Kd [5] of 0.0131 nM, a koff [5] of 3.06e-05 s⁻¹ and a kon [5] of 2.33e+06 M⁻¹ s⁻¹. For the same binder, the Kd [6] was 0.0151 nM, the Kd [7] was 0.015 nM and the Kd [8] was 0.0159 nM. For the same binder, the koff [8] was 3.76e-05 s⁻¹, the kon [8] was 2.36e+06 M⁻¹ s⁻¹ and the Kd [9] was 0.0171 nM. The koff [9] was 3.98e-05 s⁻¹, the kon [9] was 2.33e+06 M⁻¹ s⁻¹ and the EC50 (read off the curve) [10] was 0.7 µg/mL. For the same binder, the Kd [11] was 0.0152 nM, the koff [11] was 3.68e-05 s⁻¹ and the kon [11] was 2.42e+06 M⁻¹ s⁻¹.
